Reference: patent publication US20260167714A1 (COHERUS BIOSCIENCES, published 2026)
Residue numbers refer to the chain shown, from its start. Numbers in names are those of the source.

Key:
[1] = target: T1, human ILT4 expressed on cells (human, UniProt Q8N423 22-597); assay: flow cytometry on ILT4-CHO cells, unlabelled mAb titrated; competitor AF647-Hz156.03-LALA
T1 construct: whole, on cells; also called CHO-S/ILT4 cells; ILT4-CHO cells
Procedure: (§1) Competition binding assays were performed. […] Binding activities were measured by flow cytometry.
Anti-human ILT4 mAbs at various concentrations (0-15 μg/ml) were incubated with ILT4-CHO cells. Cells were washed and stained with AF647-Hz156.03-LALA. Cells were analyzed by flow cytometry.

[2] = target: T1, human ILT4 expressed on cells; assay: flow cytometry, blockade of PE-HLA-G tetramer binding to ILT4-CHO cells, Experiment 1
[3] = target: T1, human ILT4 expressed on cells; assay: flow cytometry, blockade of PE-HLA-A tetramer (5 ug/ml) binding to ILT4-CHO cells, Experiment 1 (table title prints HLA-G)
[4] = target: T1, human ILT4 expressed on cells; assay: flow cytometry, direct binding of AF647-labelled antibody (0-10 µg/ml) to ILT4-CHO cells
Procedure: (§2) AF647-Hz45.01-LALA and AF647-Hz156.03-LALA at various concentrations (0-10 μg/ml) were incubated with ILT4-CHO cells and analyzed by flow cytometry.

[5] = target: T2, LILRA6 (human, UniProt Q6PI73 24-447); assay: SPR, Biacore 8K, mAb captured on anti-human Fc, analyte injected
T2 construct: Bought protein; limits of the extracellular domain are marked by bold type not visible here; whole entry named; also called recombinant human LILRA6
T2 sequence (Q6PI73 other isoform, or with tags, fused parts or gaps): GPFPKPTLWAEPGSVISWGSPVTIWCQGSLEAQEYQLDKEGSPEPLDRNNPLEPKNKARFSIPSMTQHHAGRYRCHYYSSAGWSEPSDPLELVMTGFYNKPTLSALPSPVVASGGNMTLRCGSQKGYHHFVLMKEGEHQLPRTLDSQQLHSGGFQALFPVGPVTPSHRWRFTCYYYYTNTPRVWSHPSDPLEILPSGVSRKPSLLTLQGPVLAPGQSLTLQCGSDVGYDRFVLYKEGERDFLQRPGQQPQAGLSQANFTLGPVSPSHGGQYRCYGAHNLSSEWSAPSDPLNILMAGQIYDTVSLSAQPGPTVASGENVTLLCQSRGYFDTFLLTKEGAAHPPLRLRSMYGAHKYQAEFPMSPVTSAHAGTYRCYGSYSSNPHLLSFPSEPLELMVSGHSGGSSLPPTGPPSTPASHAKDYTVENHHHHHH
Procedure: (§3) SPR was used to determine the specificity of four humanized anti-ILT4 mAbs for binding to LILRB2 and to determine any cross-reactivity with nine other LILRA and LILRB family members. LILR proteins were purchased from Acro Biosystems or R&D Systems, with sequence provided below. The studies were performed with a Biacore 8K instrument using a CM4 sensor chip with a running buffer of HBS-P+, 100 μg/mL BSA. Anti-human Fc specific capture surfaces were prepared using standard amine coupling chemistry. MAb was captured to flow cell 2 with flow cell 1 serving as the reference flow cell. Each of the nine family members and LILRB2 were injected at 100 nM at 30 μL/min for 90 sec with 240 sec of dissociation. […] All sensorgrams were doubled-referenced during processing of the data.

[6] = target: T3, LILRA1 (human, UniProt O75019 17-461); assay: as above
T3 construct: Bought protein; limits of the extracellular domain are marked by bold type not visible here; whole entry named; also called recombinant human LILRA1
T3 sequence (O75019 other isoform, or with tags, fused parts or gaps): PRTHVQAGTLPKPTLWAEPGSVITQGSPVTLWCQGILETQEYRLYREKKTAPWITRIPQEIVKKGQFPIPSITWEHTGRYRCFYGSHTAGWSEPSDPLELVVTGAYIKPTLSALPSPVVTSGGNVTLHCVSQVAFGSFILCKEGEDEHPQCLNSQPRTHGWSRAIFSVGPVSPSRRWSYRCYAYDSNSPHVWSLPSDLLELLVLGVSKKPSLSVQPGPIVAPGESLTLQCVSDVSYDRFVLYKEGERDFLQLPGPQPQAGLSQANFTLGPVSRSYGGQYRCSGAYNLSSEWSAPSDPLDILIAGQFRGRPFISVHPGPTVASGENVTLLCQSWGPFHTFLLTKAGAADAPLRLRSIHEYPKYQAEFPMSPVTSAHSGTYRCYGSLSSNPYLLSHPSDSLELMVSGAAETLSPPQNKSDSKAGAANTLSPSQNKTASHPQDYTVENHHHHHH
Procedure: as §3

[7] = target: T4, LILRA5 (human, UniProt A6NI73 42-268); assay: as above
T4 construct: Bought protein; limits of the extracellular domain are marked by bold type not visible here; whole entry named; also called recombinant human LILRA5
T4 sequence (A6NI73 other isoform, or with tags, fused parts or gaps): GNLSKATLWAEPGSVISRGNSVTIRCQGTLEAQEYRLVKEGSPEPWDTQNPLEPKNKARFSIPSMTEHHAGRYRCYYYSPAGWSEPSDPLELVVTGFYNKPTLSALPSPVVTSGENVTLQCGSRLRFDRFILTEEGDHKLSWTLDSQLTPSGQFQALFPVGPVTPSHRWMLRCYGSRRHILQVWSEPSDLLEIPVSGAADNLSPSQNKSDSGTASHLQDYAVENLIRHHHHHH
Procedure: as §3

[8] = target: T5, LILRB1 (human, UniProt Q8NHL6 24-461); assay: as above
T5 construct: Bought protein; limits of the extracellular domain are marked by bold type not visible here; whole entry named; also called recombinant human LILRB1; ILT2
T5 sequence (Q8NHL6 other isoform, or with tags, fused parts or gaps): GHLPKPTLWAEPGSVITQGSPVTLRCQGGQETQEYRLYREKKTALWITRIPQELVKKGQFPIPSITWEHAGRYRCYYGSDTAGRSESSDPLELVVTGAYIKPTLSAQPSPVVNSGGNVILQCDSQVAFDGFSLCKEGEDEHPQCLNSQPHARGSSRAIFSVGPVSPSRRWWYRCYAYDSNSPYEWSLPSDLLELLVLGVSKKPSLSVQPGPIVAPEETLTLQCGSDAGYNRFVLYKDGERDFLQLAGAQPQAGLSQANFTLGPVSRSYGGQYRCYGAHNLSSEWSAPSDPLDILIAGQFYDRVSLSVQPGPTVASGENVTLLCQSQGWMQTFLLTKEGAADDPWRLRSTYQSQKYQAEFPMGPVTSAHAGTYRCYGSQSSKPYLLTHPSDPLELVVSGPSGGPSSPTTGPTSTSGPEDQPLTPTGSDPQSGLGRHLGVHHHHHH
Procedure: as §3

[9] = target: T6, LILRA4 (human, UniProt P59901 24-446); assay: as above
T6 construct: Bought protein; limits of the extracellular domain are marked by bold type not visible here; whole entry named; also called recombinant human LILRA4
T6 sequence (P59901 other isoform, or with tags, fused parts or gaps): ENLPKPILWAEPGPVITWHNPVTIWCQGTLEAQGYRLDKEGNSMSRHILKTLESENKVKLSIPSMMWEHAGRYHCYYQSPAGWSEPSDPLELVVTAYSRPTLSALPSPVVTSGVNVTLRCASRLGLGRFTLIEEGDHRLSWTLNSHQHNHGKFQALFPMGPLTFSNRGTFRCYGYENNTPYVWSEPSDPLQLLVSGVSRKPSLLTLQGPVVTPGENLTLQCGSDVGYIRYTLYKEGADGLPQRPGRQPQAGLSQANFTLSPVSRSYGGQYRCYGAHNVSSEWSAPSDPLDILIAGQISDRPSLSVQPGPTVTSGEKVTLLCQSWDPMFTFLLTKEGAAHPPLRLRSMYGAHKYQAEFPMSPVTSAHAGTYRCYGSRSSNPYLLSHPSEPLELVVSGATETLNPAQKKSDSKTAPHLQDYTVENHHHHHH
Procedure: as §3

[10] = target: T7, LILRA2 (human, UniProt Q8N149 24-449); assay: as above
T7 construct: Bought protein; limits of the extracellular domain are marked by bold type not visible here; whole entry named; also called recombinant human LILRA2
T7 sequence (Q8N149 other isoform, or with tags, fused parts or gaps): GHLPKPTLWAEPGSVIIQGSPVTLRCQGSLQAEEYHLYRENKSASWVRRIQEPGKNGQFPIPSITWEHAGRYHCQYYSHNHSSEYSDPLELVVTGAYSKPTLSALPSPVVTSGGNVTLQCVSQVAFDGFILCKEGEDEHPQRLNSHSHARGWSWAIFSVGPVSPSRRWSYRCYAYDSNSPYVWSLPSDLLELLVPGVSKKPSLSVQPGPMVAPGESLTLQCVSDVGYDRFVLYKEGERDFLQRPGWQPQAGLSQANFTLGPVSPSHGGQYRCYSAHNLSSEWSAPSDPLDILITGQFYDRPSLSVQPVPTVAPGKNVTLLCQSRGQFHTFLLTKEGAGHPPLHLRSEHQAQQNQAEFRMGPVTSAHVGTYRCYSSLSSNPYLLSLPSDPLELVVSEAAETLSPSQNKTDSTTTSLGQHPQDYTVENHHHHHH
Procedure: as §3

[11] = target: T8, LILRB4 (human, UniProt Q8NHJ6 22-259); assay: as above
T8 construct: Bought protein; limits of the extracellular domain are marked by bold type not visible here; whole entry named; also called recombinant human LILRB4; ILT3
T8 sequence (Q8NHJ6 other isoform, or with tags, fused parts or gaps): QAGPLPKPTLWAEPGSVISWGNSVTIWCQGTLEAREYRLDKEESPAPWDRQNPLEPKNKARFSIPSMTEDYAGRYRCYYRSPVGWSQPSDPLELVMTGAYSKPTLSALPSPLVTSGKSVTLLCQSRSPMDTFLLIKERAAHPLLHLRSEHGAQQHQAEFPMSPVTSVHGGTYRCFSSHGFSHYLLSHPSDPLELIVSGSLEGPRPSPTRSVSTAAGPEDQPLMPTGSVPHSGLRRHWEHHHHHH
Procedure: as §3

[12] = target: T9, LILRA3 (human, UniProt Q8N6C8 24-439); assay: as above
T9 construct: Bought protein; limits of the part used are marked by bold type not visible here; whole entry named; also called recombinant human LILRA3
T9 sequence (Q8N6C8 24-439 A105V limits assumed): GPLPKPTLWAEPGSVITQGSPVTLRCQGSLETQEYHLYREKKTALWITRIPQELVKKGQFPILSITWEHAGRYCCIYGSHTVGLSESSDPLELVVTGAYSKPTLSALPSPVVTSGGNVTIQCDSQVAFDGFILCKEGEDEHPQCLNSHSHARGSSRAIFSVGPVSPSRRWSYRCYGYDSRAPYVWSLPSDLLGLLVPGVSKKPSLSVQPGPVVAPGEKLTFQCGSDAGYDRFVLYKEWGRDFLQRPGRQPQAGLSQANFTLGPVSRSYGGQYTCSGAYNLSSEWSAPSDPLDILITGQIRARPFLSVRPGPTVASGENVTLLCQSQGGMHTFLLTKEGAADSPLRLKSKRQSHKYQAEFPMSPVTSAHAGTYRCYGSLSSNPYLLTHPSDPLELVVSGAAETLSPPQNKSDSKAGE
Procedure: as §3

[13] = target: T10, LILRB3 (human, UniProt O75022 24-443); assay: as above
T10 construct: Bought protein; limits of the extracellular domain are marked by bold type not visible here; whole entry named; also called recombinant human LILRB3; ILT5
T10 sequence (O75022 other isoform, or with tags, fused parts or gaps): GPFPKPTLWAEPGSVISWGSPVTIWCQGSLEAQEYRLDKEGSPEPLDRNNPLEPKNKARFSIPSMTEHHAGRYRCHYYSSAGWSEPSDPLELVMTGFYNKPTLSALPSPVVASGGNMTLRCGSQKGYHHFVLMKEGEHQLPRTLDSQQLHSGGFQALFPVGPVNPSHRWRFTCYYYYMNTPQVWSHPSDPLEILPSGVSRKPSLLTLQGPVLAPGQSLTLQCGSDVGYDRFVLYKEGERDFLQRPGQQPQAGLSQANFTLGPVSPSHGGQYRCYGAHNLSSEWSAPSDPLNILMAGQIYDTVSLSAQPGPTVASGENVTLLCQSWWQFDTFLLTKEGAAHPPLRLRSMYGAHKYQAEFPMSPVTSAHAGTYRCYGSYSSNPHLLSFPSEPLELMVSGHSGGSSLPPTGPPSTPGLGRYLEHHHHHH
Procedure: as §3

[14] = target: T1, human ILT4 expressed on cells; assay: cell-based or functional assay
[15] = target: T1, human ILT4 expressed on cells; assay: flow cytometry on ILT4-CHO cells, unlabelled mAb titrated; competitor AF647-Hz45.01-LALA
Procedure: as §1
Anti-human ILT4 mAbs at various concentrations (0-15 μg/ml) were incubated with ILT4-CHO cells. Cells were washed and stained with AF647-Hz45.01-LALA. Cells were analyzed by flow cytometry.

[16] = target: T1, human ILT4 expressed on cells; assay: flow cytometry, blockade of PE-HLA-A tetramer (5 ug/ml) binding to ILT4-CHO cells, Experiment 3 (table title prints HLA-G)
[17] = target: T1, human ILT4 expressed on cells; assay: flow cytometry, blockade of PE-HLA-A tetramer (5 ug/ml) binding to ILT4-CHO cells, Experiment 2 (table title prints HLA-G)
[18] = target: T1, human ILT4 expressed on cells; assay: cell-based or functional assay; remark: listed apart in the source
[19] = target: T1, human ILT4 expressed on cells; assay: flow cytometry, AF647-labelled mAb on ILT4-CHO cells
Procedure: as §2

T1 sequence (Q8N423 22-597): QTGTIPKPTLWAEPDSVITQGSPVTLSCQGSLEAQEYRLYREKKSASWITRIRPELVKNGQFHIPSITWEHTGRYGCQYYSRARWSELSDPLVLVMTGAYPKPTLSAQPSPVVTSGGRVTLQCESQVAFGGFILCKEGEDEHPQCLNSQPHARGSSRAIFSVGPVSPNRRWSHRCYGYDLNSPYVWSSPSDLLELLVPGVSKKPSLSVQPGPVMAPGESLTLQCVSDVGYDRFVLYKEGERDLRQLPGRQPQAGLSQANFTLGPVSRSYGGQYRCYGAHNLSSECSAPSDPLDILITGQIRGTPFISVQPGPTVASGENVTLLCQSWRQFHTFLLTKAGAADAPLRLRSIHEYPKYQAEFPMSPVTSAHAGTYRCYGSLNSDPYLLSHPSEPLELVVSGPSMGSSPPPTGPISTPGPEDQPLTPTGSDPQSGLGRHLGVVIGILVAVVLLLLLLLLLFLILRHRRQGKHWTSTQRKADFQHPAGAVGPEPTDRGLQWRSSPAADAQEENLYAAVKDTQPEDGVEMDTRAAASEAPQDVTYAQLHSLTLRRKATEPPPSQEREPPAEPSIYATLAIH

B1: Hz45.01-LALA (antibody, human IgG1, kappa, L234A L235A, V domains shown)
VH: QVQLVQSGAEVKKPGASVKVSCKASGYTFTDYYMNWVRQAPGQRLEWIGDINPNNGGTSYNQKFKGRATITVDTSASTAYMELSSLRSEDTAVYYCARGGAELTGTYWYFDVWGQGTTVTVSS
VL: DIQMTQSPSSLSASVGDRVTITCRASENIYSNLAWYQQKPGKAPKVLVYGATNLADGVPSRFSGSGSGTEYTLTISSLQPEDFATYYCQHFWDSPFTFGGGTKVEIKR
notes: Humanized L45S4, human IgG1 L234A/L235A, kappa; also called Humanized 45_01; Hu IgG 45_01 LALA
Work on B1 yielded an IC50 [1] of 0.381 µg/mL, an IC50 [2] of 0.198 µg/mL and an IC50 [3] of 0.106 µg/mL. The “EC50 (read off the curve)” value [4] was ~0.2 µg/mL, the binding result [5] was “no binding (tested: 100 nM)” and the binding result [6] was “no binding (tested: 100 nM)”. B1: no binding (tested: 100 nM) [7]; no binding (tested: 100 nM) [8]; no binding (tested: 100 nM) [9]. B1: no binding (tested: 100 nM) [10]; no binding (tested: 100 nM) [11]; no binding (tested: 100 nM) [12]. For the same binder, the binding result [13] was “no binding (tested: 100 nM)”, the “EC50 value of TNFa production, donor 4” value [14] was 0.0138 µg/mL and the “EC50 value of TNFa production, donor 5” value [14] was 0.0185 µg/mL. For the same binder, the IC50 [15] was 0.31 µg/mL, the IC50 [16] was 0.109 µg/mL and the IC50 [17] was 0.122 µg/mL. The “EC50 value of IL-6 production, donor 4” value [18] was 0.00603 µg/mL, the “EC50 value of IL-6 production, donor 5” value [18] was 0.0159 µg/mL and the EC50 [19] was 162 µg/mL.

B2: Hz156.03-LALA (antibody, human IgG1, kappa, L234A L235A, V domains shown)
VH: QVQLVQSGAEVKKPGSSVKVSCKASGYTFTDYYMNWVRQAPGQGLEWIARIYPGVYRTHYNEKFKDRVTLTADKSTSTAYMELSSLRSEDTAVYYCARSGYYGGTYEEDAMDYWGQGTTVTVSS
VL: B1 VL with V46L, G50A, N53S, E70D, H90N, S94T, F96Y, G100Q
notes: Humanized L156S3, human IgG1 L234A/L235A, kappa
B2 gave an IC50 [1] of 0.422 µg/mL, an IC50 [2] of 0.19 µg/mL and an IC50 [3] of 0.149 µg/mL. For the same binder, the “EC50 (read off the curve)” value [4] was ~0.2 µg/mL, the binding result [5] was “no binding (tested: 100 nM)” and the binding result [6] was “no binding (tested: 100 nM)”. B2: no binding (tested: 100 nM) [7]; no binding (tested: 100 nM) [8]; no binding (tested: 100 nM) [9]. B2: no binding (tested: 100 nM) [10]; no binding (tested: 100 nM) [11]; no binding (tested: 100 nM) [12]. For the same binder, the binding result [13] was “no binding (tested: 100 nM)”, the “EC50 value of TNFa production, donor 4” value [14] was 0.00724 µg/mL and the “EC50 value of TNFa production, donor 5” value [14] was 0.0236 µg/mL. The IC50 [15] was 0.245 µg/mL, the IC50 [16] was 0.164 µg/mL and the IC50 [17] was 0.152 µg/mL. For the same binder, the “EC50 value of IL-6 production, donor 4” value [18] was 0.0082 µg/mL, the “EC50 value of IL-6 production, donor 5” value [18] was 0.0213 µg/mL and the EC50 [19] was 248 µg/mL.
